Protein stability index data for 94 variants are collected here from the supplement of paper PMC10567573.

B1: KLHL12 (parent)
chain: REESLPNLLQYVRMPLLTPRYITD
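Further: lentivirally expressed fusions sorted by FACS into six bins by GFP to DsRed ratio, PSI derived from sequencing read proportions per bin multiplied by bin number.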

In this data set the parent is B1. As to the kind of experiment: protein stability index of a GFP-peptide fusion (GPS, HEK-293T) (PSI 1-6); higher = more stable. Particulars: c terminus: a fixed tail appended.
In the case of REESLPNLLQYVRMPLTTPRYITD [L17T], the protein stability index was found to be 2.54.
The value for REESLPNLLQYVRMPLSTPRYITD [L17S] was 2.87.
To REESLPNLLQYVRMPLITPRYITD [L17I] belongs 2.54; to REESLPNLLQYVRMPLMTPRYITD [L17M], 2.63.
To REESLPNLLQYVRMPLATPRYITD [L17A] belongs 3.51.
Regarding REESLPNLLQYVRMPLWTPRYITD [L17W], the protein stability index was 2.33.
To REESLPNLLQYVRMPLVTPRYITD [L17V] belongs 3.56; to REESLPNLLQYVRMPLNTPRYITD [L17N], 3.42.
The value for REESLPNLLQYVRMPLHTPRYITD [L17H] was 2.83.
The value for REESLPNLLQYVRMPLRTPRYITD [L17R] was 3.48; that for REESLPNLLQYVRMPLETPRYITD [L17E] was 3.45.
Regarding REESLPNLLQYVRMPLKTPRYITD [L17K], the protein stability index amounted to 3.51.
The value for REESLPNLLQYVRMPLDTPRYITD [L17D] was 3.43; that for REESLPNLLQYVRMPLCTPRYITD [L17C] was 2.85.
To REESLPNLLQYVRMPLQTPRYITD [L17Q] belongs 2.86.
To REESLPNLLQYVRMPLGTPRYITD [L17G] belongs 2.77; to REESLPNLLQYVRMPLPTPRYITD [L17P], 2.54; to REESLPNLLQYVRMPLFTPRYITD [L17F], 2.16.
Regarding REESLPNLLQYVRMPLYTPRYITD [L17Y], the protein stability index is 2.98.
Consider REESLPNLLQYVRMPQLTPRYITD [L16Q], for which the protein stability index was 3.12.
The value for REESLPNLLQYVRMPRLTPRYITD [L16R] was 3.25; that for REESLPNLLQYVRMPDLTPRYITD [L16D] was 2.69.
Consider REESLPNLLQYVRMPKLTPRYITD [L16K], for which the protein stability index is 2.93.
As for REESLPNLLQYVRMPPLTPRYITD [L16P], the protein stability index stood at 2.77.
To REESLPNLLQYVRMPCLTPRYITD [L16C] belongs 2.41; to REESLPNLLQYVRMPGLTPRYITD [L16G], 2.84; to REESLPNLLQYVRMPALTPRYITD [L16A], 2.56.
The value for REESLPNLLQYVRMPHLTPRYITD [L16H] was 3.18; that for REESLPNLLQYVRMPFLTPRYITD [L16F] was 2.27.
Consider REESLPNLLQYVRMPELTPRYITD [L16E], for which the protein stability index stood at 3.04.
To REESLPNLLQYVRMPVLTPRYITD [L16V] belongs 3.03.
The value for REESLPNLLQYVRMPSLTPRYITD [L16S] was 3.56.
The value for REESLPNLLQYVRMPTLTPRYITD [L16T] was 2.75.
As for REESLPNLLQYVRMPNLTPRYITD [L16N], the protein stability index is 2.77.
REESLPNLLQYVRMPMLTPRYITD [L16M]: the protein stability index is 2.46.
To REESLPNLLQYVRMPILTPRYITD [L16I] belongs 2.45.
To REESLPNLLQYVRMPYLTPRYITD [L16Y] belongs 2.98.
The value for REESLPNLLQYVRMPWLTPRYITD [L16W] was 1.6.
In the case of REESLPNLLQYVHMPLLTPRYITD [R13H], the protein stability index is 2.38.
To REESLPNLLQYVTMPLLTPRYITD [R13T] belongs 1.64; to REESLPNLLQYVEMPLLTPRYITD [R13E], 2.84; to REESLPNLLQYVLMPLLTPRYITD [R13L], 3.6.
To REESLPNLLQYVFMPLLTPRYITD [R13F] belongs 2.06; to REESLPNLLQYVQMPLLTPRYITD [R13Q], 2.31; to REESLPNLLQYVNMPLLTPRYITD [R13N], 2.58.
The value for REESLPNLLQYVYMPLLTPRYITD [R13Y] was 2.53.
Turning to REESLPNLLQYVVMPLLTPRYITD [R13V], the protein stability index amounted to 2.66.
The value for REESLPNLLQYVSMPLLTPRYITD [R13S] was 1.52.
To REESLPNLLQYVMMPLLTPRYITD [R13M] belongs 2.07; to REESLPNLLQYVWMPLLTPRYITD [R13W], 2.84; to REESLPNLLQYVKMPLLTPRYITD [R13K], 2.67.
To REESLPNLLQYVPMPLLTPRYITD [R13P] belongs 2.97; to REESLPNLLQYVGMPLLTPRYITD [R13G], 1.76.
In the case of REESLPNLLQYVRMFLLTPRYITD [P15F], the protein stability index worked out at 2.24.
To REESLPNLLQYVRMSLLTPRYITD [P15S] belongs 3.06.
The value for REESLPNLLQYVRMELLTPRYITD [P15E] was 2.54; that for REESLPNLLQYVRMYLLTPRYITD [P15Y] was 4.19; that for REESLPNLLQYVRMKLLTPRYITD [P15K] was 1.57.
REESLPNLLQYVRMVLLTPRYITD [P15V]: the protein stability index stood at 2.34.
Regarding REESLPNLLQYVRMILLTPRYITD [P15I], the protein stability index turned out to be 3.9.
The value for REESLPNLLQYVRMRLLTPRYITD [P15R] was 1.69; that for REESLPNLLQYVRMALLTPRYITD [P15A] was 1.58.
The value for REESLPNLLQYVRMHLLTPRYITD [P15H] was 2.65.
The value for REESLPNLLQYVRMTLLTPRYITD [P15T] was 2.65; that for REESLPNLLQYVRMLLLTPRYITD [P15L] was 4.9.
As for REESLPNLLQYVRMMLLTPRYITD [P15M], the protein stability index is 2.48.
On to REESLPNLLQYVRMGLLTPRYITD [P15G], for which the protein stability index worked out at 3.67.
The value for REESLPNLLQYVRMQLLTPRYITD [P15Q] was 2.45.
Take REESLPNLLQYVRMNLLTPRYITD [P15N]: the protein stability index came out at 2.42.
The value for REESLPNLLQYVRMWLLTPRYITD [P15W] was 2.
The value for REESLPNLLQYVRMDLLTPRYITD [P15D] was 2.01; that for REESLPNLLQYVRMPLLEPRYITD [T18E] was 2.87.
With REESLPNLLQYVRMPLLAPRYITD [T18A], the protein stability index was determined as 2.36.
The value for REESLPNLLQYVRMPLLCPRYITD [T18C] was 1.96; that for REESLPNLLQYVRMPLLDPRYITD [T18D] was 2.38; that for REESLPNLLQYVRWPLLTPRYITD [M14W] was 2.13.
As for REESLPNLLQYVREPLLTPRYITD [M14E], the protein stability index came to 3.52.
The value for REESLPNLLQYVRTPLLTPRYITD [M14T] was 2.97.
The value for REESLPNLLQYVRPPLLTPRYITD [M14P] was 3.36.
On to REESLPNLLQYVRRPLLTPRYITD [M14R], for which the protein stability index turned out to be 2.68.
The value for REESLPNLLQYVRAPLLTPRYITD [M14A] was 2.42; that for REESLPNLLQYVRCPLLTPRYITD [M14C] was 2.02.
Regarding REESLPNLLQYVRFPLLTPRYITD [M14F], the protein stability index is 2.09.
To REESLPNLLQYVRIPLLTPRYITD [M14I] belongs 2.56.
The value for REESLPNLLQYVRKPLLTPRYITD [M14K] was 3.46; that for REESLPNLLQYVRHPLLTPRYITD [M14H] was 2.89; that for REESLPNLLQYVRSPLLTPRYITD [M14S] was 3.13.
The value for REESLPNLLQYVRQPLLTPRYITD [M14Q] was 2.88; that for REESLPNLLQYVRVPLLTPRYITD [M14V] was 2.87; that for REESLPNLLQYVRYPLLTPRYITD [M14Y] was 2.58.
On to REESLPNLLQYVRGPLLTPRYITD [M14G], for which the protein stability index amounted to 3.11.
To REESLPNLLQYVRNPLLTPRYITD [M14N] belongs 2.4.
The value for REESLPNLLQYVRLPLLTPRYITD [M14L] was 2.35; that for REESLPNLLQYVRDPLLTPRYITD [M14D] was 3.17.
